Assay results from the supplement of paper PMC10065799, “High-throughput profiling of sequence recognition by tyrosine kinases and SH2 domains using bacterial peptide display” (eLife, 2023).

How the values were obtained:
[1] = molecular target: SHP2-C SH2; assay: SH2 binding enrichment of the phosphorylated peptide, bacterial display (enrichment ratio); higher = better substrate or ligand; peptides without Tyr show the background
[2] = molecular target: Grb2 SH2 (UniProt P62993); assay: as above
Sequence of Grb2 SH2 (P62993 whole entry, looked up): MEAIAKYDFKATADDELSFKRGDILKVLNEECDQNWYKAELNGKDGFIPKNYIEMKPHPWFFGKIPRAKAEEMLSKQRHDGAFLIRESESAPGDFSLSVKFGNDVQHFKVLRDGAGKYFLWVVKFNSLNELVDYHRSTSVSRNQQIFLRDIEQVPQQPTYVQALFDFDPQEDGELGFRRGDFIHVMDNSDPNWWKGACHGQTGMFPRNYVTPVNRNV

[3] = molecular target: c-Src SH2; assay: as above
[4] = system: c-Src; assay: phosphorylation enrichment, bacterial display (enrichment ratio); higher = better substrate or ligand; peptides without Tyr show the background
[5] = molecular target: MERTK (UniProt Q12866); assay: as above
[6] = molecular target: EPHB2 (UniProt P29323); assay: as above
Sequence of EPHB2 (P29323 whole entry, looked up): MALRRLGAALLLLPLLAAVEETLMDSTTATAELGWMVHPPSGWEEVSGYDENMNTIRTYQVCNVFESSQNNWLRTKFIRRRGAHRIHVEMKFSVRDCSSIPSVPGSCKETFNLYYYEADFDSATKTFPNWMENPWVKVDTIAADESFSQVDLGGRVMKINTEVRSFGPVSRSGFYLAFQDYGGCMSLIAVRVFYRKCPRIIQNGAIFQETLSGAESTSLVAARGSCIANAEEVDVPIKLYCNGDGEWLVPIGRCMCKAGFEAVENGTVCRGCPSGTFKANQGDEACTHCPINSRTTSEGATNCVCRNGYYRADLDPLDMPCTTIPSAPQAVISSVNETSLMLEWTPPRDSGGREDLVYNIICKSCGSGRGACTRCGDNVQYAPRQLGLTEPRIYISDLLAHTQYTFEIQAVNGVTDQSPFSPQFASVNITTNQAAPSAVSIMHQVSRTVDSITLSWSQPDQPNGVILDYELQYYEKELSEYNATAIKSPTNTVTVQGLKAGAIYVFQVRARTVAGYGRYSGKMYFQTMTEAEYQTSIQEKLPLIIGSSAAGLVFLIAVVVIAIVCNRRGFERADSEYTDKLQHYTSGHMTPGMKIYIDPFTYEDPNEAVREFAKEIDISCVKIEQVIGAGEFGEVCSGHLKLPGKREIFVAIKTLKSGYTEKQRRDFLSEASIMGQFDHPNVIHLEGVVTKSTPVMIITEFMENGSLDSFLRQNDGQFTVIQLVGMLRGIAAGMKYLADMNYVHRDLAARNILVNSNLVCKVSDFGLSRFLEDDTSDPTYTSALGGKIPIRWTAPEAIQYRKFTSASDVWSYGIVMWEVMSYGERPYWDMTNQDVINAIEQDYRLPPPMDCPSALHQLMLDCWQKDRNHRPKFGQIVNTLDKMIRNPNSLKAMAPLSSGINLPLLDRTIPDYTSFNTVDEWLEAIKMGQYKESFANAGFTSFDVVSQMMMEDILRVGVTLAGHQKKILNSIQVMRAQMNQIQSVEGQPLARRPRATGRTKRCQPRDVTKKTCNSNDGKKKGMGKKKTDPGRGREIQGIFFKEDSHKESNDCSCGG

[7] = molecular target: FGFR3 (UniProt P22607); assay: as above
Sequence of FGFR3 (P22607 whole entry, looked up): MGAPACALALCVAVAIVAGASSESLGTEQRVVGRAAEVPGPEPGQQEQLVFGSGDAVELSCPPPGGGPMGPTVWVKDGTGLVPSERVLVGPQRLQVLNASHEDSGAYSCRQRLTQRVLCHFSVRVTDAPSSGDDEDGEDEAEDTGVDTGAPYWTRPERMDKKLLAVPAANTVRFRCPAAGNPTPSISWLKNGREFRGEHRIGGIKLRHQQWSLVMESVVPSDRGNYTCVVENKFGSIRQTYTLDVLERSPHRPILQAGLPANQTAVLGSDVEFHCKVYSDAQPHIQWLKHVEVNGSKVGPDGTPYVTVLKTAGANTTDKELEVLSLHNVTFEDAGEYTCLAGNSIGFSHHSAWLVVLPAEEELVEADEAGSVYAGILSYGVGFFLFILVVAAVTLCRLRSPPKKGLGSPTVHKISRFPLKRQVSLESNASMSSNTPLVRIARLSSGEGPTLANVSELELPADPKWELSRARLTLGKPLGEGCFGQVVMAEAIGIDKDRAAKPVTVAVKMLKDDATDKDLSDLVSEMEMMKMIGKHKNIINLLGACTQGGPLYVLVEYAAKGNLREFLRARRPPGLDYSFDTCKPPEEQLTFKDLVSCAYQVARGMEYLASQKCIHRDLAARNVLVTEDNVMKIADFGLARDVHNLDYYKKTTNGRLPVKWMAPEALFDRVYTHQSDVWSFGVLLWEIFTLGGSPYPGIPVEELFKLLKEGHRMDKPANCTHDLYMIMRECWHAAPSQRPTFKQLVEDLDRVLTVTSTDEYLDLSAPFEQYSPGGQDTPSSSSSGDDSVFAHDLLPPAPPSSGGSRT

[8] = system: Fer (mouse); assay: as above
[9] = molecular target: Fes (UniProt P07332); assay: as above
Sequence of Fes (P07332 whole entry, looked up): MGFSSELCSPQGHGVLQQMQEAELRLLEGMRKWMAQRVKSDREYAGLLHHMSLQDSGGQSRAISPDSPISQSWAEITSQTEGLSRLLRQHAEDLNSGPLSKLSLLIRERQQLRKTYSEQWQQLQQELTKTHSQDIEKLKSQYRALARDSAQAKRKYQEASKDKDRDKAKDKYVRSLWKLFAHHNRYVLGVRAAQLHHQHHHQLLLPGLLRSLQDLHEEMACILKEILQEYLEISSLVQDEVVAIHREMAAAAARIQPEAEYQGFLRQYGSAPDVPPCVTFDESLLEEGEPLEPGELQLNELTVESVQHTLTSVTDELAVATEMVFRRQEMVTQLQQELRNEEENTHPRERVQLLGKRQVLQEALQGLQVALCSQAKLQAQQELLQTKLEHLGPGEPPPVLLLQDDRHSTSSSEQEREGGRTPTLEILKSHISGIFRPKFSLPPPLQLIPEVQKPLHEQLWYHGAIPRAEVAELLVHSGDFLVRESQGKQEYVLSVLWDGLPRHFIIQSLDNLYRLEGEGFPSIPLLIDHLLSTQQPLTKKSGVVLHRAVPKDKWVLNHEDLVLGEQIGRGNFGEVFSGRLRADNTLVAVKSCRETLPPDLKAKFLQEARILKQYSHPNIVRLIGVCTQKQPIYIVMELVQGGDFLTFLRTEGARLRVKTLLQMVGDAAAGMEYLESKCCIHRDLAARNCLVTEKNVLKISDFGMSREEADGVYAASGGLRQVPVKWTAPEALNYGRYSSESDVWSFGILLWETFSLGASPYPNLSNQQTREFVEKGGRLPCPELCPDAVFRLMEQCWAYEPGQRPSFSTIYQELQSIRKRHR

[10] = system: AncSZ; assay: as above
[11] = system: c-Abl (mouse); assay: as above
[12] = molecular target: EPHB1 (UniProt P54762); assay: as above
[13] = molecular target: Fyn (UniProt P06241); assay: as above
Sequence of Fyn (P06241 whole entry, looked up): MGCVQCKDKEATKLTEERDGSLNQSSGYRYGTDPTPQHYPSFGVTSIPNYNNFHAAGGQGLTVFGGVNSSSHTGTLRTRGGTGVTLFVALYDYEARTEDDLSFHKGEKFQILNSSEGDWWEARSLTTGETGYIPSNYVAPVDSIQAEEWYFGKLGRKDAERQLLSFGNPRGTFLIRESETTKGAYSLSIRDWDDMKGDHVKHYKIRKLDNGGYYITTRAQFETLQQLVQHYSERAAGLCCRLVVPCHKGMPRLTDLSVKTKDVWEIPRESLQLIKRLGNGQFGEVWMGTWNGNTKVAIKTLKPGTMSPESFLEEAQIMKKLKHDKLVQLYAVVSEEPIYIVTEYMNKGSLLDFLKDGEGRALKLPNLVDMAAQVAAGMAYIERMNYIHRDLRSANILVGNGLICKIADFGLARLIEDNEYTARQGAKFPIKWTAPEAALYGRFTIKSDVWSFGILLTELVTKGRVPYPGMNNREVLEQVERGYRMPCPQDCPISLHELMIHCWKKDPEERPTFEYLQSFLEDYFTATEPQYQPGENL

[14] = molecular target: Hck (UniProt P08631); assay: as above
Sequence of Hck (P08631 whole entry, looked up): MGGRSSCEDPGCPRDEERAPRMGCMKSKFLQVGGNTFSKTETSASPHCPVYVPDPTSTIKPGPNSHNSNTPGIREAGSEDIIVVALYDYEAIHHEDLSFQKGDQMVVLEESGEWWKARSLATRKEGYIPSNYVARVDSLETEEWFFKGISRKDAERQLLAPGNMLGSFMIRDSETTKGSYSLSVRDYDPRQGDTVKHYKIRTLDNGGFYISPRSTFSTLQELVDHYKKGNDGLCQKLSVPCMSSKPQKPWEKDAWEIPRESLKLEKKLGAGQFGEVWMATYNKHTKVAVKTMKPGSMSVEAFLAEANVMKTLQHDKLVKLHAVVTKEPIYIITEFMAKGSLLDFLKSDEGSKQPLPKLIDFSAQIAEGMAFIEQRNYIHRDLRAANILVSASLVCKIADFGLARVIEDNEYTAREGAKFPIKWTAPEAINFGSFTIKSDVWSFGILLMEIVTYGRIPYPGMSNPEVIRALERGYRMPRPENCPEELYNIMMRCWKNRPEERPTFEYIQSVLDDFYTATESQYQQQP

[15] = molecular target: Jak2 (UniProt O60674); assay: as above
[16] = molecular target: FGFR1 (UniProt P11362); assay: as above
Sequence of FGFR1 (P11362 whole entry, looked up, the tested form may be a part): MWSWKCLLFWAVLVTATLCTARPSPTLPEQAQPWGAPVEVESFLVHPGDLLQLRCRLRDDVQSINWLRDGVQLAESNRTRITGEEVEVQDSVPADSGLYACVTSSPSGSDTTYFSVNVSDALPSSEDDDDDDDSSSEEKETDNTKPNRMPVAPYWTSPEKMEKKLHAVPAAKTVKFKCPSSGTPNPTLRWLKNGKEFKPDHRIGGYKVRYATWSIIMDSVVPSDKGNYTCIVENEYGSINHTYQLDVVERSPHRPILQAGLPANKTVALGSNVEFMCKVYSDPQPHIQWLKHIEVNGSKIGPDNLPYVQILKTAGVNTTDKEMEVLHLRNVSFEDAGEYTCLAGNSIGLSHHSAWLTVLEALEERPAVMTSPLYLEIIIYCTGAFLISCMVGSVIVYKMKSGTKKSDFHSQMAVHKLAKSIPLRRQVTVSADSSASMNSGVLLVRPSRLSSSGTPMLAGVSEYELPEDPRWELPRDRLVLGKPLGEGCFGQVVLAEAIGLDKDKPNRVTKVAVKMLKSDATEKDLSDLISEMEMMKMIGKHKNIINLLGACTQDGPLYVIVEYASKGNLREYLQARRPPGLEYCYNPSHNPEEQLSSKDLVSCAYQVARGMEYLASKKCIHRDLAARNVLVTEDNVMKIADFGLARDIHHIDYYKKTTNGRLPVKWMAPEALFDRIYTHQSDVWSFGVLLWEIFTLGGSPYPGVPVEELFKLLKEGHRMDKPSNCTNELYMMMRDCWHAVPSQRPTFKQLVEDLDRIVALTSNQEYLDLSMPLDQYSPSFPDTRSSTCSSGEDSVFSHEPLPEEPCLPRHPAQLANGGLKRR
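Throughout, for SH2 binding enrichment of the phosphorylated peptide, bacterial display: peptide library displayed on the E. coli surface as eCPX fusions, selected cells deep-sequenced, score is each peptide's frequency after selection divided by its frequency in the input.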
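Throughout, for phosphorylation enrichment, bacterial display: 11-residue human phosphosite peptides and single-mutation variants displayed on the E. coli surface, counted by deep sequencing, each peptide's frequency after selection divided by its frequency in the unselected input library; frequency after pTyr selection over input frequency; kinase dosed for 20-30% of maximal phosphorylation in three min.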

Sequence | SH2 binding enrichment [1] | SH2 binding enrichment [2] | SH2 binding enrichment [3] | phosphorylation enrichment [4] | phosphorylation enrichment [5] | phosphorylation enrichment [6] | phosphorylation enrichment [7] | phosphorylation enrichment [8] | phosphorylation enrichment [9] | phosphorylation enrichment [10] | phosphorylation enrichment [11] | phosphorylation enrichment [12] | phosphorylation enrichment [13] | phosphorylation enrichment [14] | phosphorylation enrichment [15] | phosphorylation enrichment [16]
SLYPGYNFRYA [P2RX7_Y291] | 0.672 | 0.91 | 0.666 | 0.378 | 0.399 | 0.604 | 0.57 | 0.498 | 0.685 | 0.63 | 0.477 | 0.423 | 0.413 | 0.529 | 0.495 | 0.44
AFPGEYIPTVF [RAC1_Y32] | 0.723 | 1.05 | 0.544 | 0.476 | 0.474 | 0.476 | 0.617 | 0.509 | 0.828 | 0.776 | 0.689 | 0.444 | 0.381 | 0.492 | 0.924 | 0.618
CTTFHYNFMCN [TP53_Y234_I232F_YF] | 1.47 | 1.64 | 2.14 | 0.595 | 0.4 | 0.57 | 0.672 | 0.581 | 1.1 | 0.923 | 0.641 | 0.468 | 0.501 | 0.479 | 0.866 | 0.579
SLLTDYSPQLQ [OTC_Y345] | 0.918 | 0.708 | 0.517 | 0.372 | 0.381 | 0.508 | 0.546 | 0.453 | 0.796 | 0.776 | 0.483 | 0.459 | 0.45 | 0.48 | 0.788 | 0.447
RTEAQYRFIFM [PTPN11_Y511_Q506R_YF] | 0.633 | 0.665 | 0.409 | 0.445 | 0.413 | 0.576 | 1.03 | 0.546 | 1.23 | 1.37 | 0.765 | 0.52 | 0.312 | 0.398 | 1.14 | 0.512
PLEGEYFTLQI [TP53_Y327_D324E] | 0.651 | 0.347 | 0.493 | 7.65 | 0.967 | 5.04 | 15.5 | 3.01 | 3 | 6.22 | 2.98 | 4.24 | 9.83 | 4.86 | 5.5 | 18.5
NFDLDYDSVQP [MYC_Y16_YF] | 0.898 | 0.872 | 0.595 | 0.814 | 0.458 | 0.923 | 0.608 | 0.591 | 0.974 | 2 | 0.68 | 1.28 | 0.572 | 0.575 | 1.06 | 0.573
KTGNIYRTEFG [MRPL3_Y265_M261T_YF] | 0.871 | 1.15 | 0.547 | 0.349 | 0.413 | 0.377 | 0.491 | 0.35 | 0.542 | 0.585 | 0.457 | 0.422 | 0.437 | 0.435 | 0.468 | 0.517
YYHCTYKQRMI [CLEC12A_Y242_K244Q] | 0.953 | 1.41 | 1.41 | 0.773 | 3.68 | 0.527 | 7.01 | 0.452 | 1.01 | 1.64 | 1.4 | 0.63 | 0.693 | 1.1 | 1.73 | 9.07
LIQRNYKLAAQ [ALPK2_Y1975] | 0.649 | 0.961 | 0.399 | 0.49 | 0.72 | 0.604 | 0.962 | 0.576 | 1.21 | 1.19 | 0.773 | 1.13 | 0.571 | 0.833 | 0.44 | 0.937
NNIDFYKNTTN [FGFR2_Y657_K659N_YF] | 0.611 | 0.804 | 0.434 | 0.369 | 0.352 | 0.389 | 0.609 | 0.448 | 0.792 | 0.746 | 0.57 | 0.484 | 0.472 | 0.553 | 0.574 | 0.442
ILDEAYVMAGA [ERBB2_Y772_V777A] | 0.857 | 0.736 | 0.543 | 0.744 | 0.507 | 0.67 | 0.789 | 0.516 | 1.27 | 1.48 | 0.761 | 0.662 | 0.596 | 0.537 | 0.986 | 0.639
SVCPDYDLCSV [SQSTM1_Y148] | 1.07 | 1.29 | 1.13 | 0.87 | 0.524 | 0.959 | 0.901 | 1.89 | 1.3 | 1.65 | 0.98 | 0.788 | 0.689 | 0.678 | 1.3 | 0.661
LAAAGYDVKKN [H1-3_Y72_E75K] | 0.734 | 0.66 | 0.323 | 0.324 | 0.28 | 0.249 | 0.331 | 0.305 | 0.591 | 0.414 | 0.414 | 0.355 | 0.319 | 0.288 | 0.381 | 0.383
KWHREYNFKYV [RICTOR_Y835_S837F] | 1.35 | 1.49 | 1.22 | 0.38 | 0.376 | 0.392 | 0.564 | 0.357 | 0.786 | 1.04 | 0.528 | 0.454 | 0.394 | 0.397 | 0.693 | 0.358
KLGDVYVNVAF [PGK1_Y161_D164V] | 0.845 | 1.16 | 0.636 | 0.584 | 0.471 | 0.632 | 1.01 | 0.661 | 1.08 | 1.13 | 0.727 | 0.801 | 0.645 | 0.706 | 0.965 | 1.01
